Reference: article PMC5821942, “Crystal structure of IspF from Bacillus subtilis and absence of protein complex assembly amongst IspD/IspE/IspF enzymes in the MEP pathway” (Bioscience Reports, 2018)

Tests used:
[1] = molecular target: the molecule itself; test: SEC; Superdex75 10/300 GL; single B. subtilis proteins and triple mixture (0.2 mg each, 250 μl); 100 mM NaCl, 25 mM Tris/HCl pH 8.0; 1 mM MgCl2, 1 mM MEP, 1 mM CTP if IspD present; 30°C 30 min
[2] = molecular target: the molecule itself; test: SEC; Superdex200 10/300 GL; single E. coli proteins and triple mixture (0.2 mg each, 250 μl); 100 mM NaCl, 25 mM Tris/HCl pH 8.0; 1 mM MgCl2, 1 mM MEP, 1 mM CTP if IspD present; 30°C 30 min
[3] = molecular target: the molecule itself; test: crystal structure; BsIspF native and with CMP, space group P2(1), six monomers in the asymmetric unit, 1.99 Å

Row | Protein | stoichiometry N [2] | other results
1 | 2-C-Methyl-D-erythritol-4-phosphate cytidyltransferase (IspD) from Bacillus subtilis (enzyme, Bacillus subtilis 168, UniProt Q06755 1-232, looked up, IspD of B. subtilis 168 (DSM 23778); ispD gene amplified from genomic DNA, ~699 bp product, cloned BamHI/XhoI into pGEX-6P-1; GST removed by PreScission protease; also called BsIspD; source: E. coli DH5α (pGEX-6P-1), purified (Glutathione Sepharose 4 Fast Flow, Resource Q, Superdex 75)) MSYDVVIPAAGQGKRMKAGRNKLFIELKGDPVIIHTLRVFDSHRQCDKIILVINEQEREHFQQLLSDYPFQTSIELVAGGDERQHSVYKGLKAVKQEKIVLVHDGARPFIKHEQIDELIAEAEQTGAAILAVPVKDTIKRVQDLQVSETIERSSLWAVQTPQAFRLSLLMKAHAEAERKGFLGTDDASLVEQMEGGSVRVVEGSYTNIKLTTPDDLTSAEAIMESESGNKHV |  | stoichiometry N [1]: 2
2 | 2-C-Methyl-D-erythritol 2,4-cyclodiphosphate synthase (IspF) from Escherichia coli (enzyme, Escherichia coli K12, UniProt P62617 1-159, looked up, IspF of E. coli K12; ispF gene PCR amplified and inserted into pET-22b; histidine tag removed by thrombin; also called EcIspF; source: E. coli BL21 (DE3) (pET-22b), purified (Ni-NTA, Resource Q, Superdex 75); not shown: His6, C-terminal, cleaved) MRIGHGFDVHAFGGEGPIIIGGVRIPYEKGLLAHSDGDVALHALTDALLGAAALGDIGKLFPDTDPAFKGADSRELLREAWRRIQAKGYTLGNVDVTIIAQAPKMLPHIPQMRVFIAEDLGCHMDDVNVKATTTEKLGFTGRGEGIACEAVALLIKATK | 3 | 
3 | 2-C-Methyl-D-erythritol 2,4-cyclodiphosphate synthase (IspF) from Bacillus subtilis (enzyme, Bacillus subtilis 168, IspF of B. subtilis 168 (DSM 23778); ispF gene amplified from genomic DNA, ~477 bp product, cloned BamHI/XhoI into pGEX-6P-1; GST removed by PreScission protease; also called BsIspF; MEcDP synthase; source: E. coli DH5α (pGEX-6P-1), purified (Glutathione Sepharose 4 Fast Flow, Resource Q, Superdex 75)) MFRIGQGFDVHQLVEGRPLIIGGIEIPYEKGLLGHSDADVLLHTVADACLGAVGEGDIGKHFPDTDPEFKDADSFKLLQHVWGIVKQKGYVLGNIDCTIIAQKPKMLPYIEDMRKRIAEGLEADVSQVNVKATTTEKLGFTGRAEGIAAQATVLIQKG |  | stoichiometry N [3]: 3
4 | 2-C-Methyl-D-erythritol-4-phosphate cytidyltransferase (IspD) from Escherichia coli (enzyme, Escherichia coli K12, UniProt Q46893 1-236, looked up, IspD of E. coli K12; ispD gene PCR amplified and inserted into pET-22b; histidine tag removed by thrombin; also called EcIspD; source: E. coli BL21 (DE3) (pET-22b), purified (Ni-NTA, Resource Q, Superdex 75); not shown: His6, C-terminal, cleaved) MATTHLDVCAVVPAAGFGRRMQTECPKQYLSIGNQTILEHSVHALLAHPRVKRVVIAISPGDSRFAQLPLANHPQITVVDGGDERADSVLAGLKAAGDAQWVLVHDAARPCLHQDDLARLLALSETSRTGGILAAPVRDTMKRAEPGKNAIAHTVDRNGLWHALTPQFFPRELLHDCLTRALNEGATITDEASALEYCGFHPQLVEGRADNIKVTRPEDLALAEFYLTRTIHQENT | 2 | 
